Results from the array DNA melting data of Ke et al..

experiment: melting temperature; melt of duplexes; settings: sodium 0.0675 M; strand 1 µM

| Substance | Tm [°C] |
| --- | --- |
| CGACGTGCCTCATGTGCTG+CAGCACATGAAGCACGTCG ((((((((.((((((((((+)))))))))).)))))))) | 56.3 |
| CGACGTGCCTCATGTGCTG+CAGCACATGACGCACGTCG ((((((((.((((((((((+)))))))))).)))))))) | 52.7 |
| CGACGTGCCTCATGTGCTG+CAGCACATGAGGCACGTCG (((((((((((((((((((+))))))))))))))))))) | 65.8 |
| CGACGTGCCTCATGTGCTG+CAGCACATGATGCACGTCG ((((((((.((((((((((+)))))))))).)))))))) | 56.7 |
| CGACGTGCCTCATGTGCTG+CAGCACATGCCGCACGTCG ((((((((..(((((((((+)))))))))..)))))))) | 51.4 |
| CGACGTGCCTCATGTGCTG+CAGCACATGCGGCACGTCG (((((((((.(((((((((+))))))))).))))))))) | 58.3 |
| CGACGTGCCTCATGTGCTG+CAGCACATGGCGCACGTCG ((((((((..(((((((((+)))))))))..)))))))) | 52.5 |
| CGACGTGCCTCATGTGCTG+CAGCACATGTAGCACGTCG ((((((((..(((((((((+)))))))))..)))))))) | 52.9 |
| CGACGTGCCTCATGTGCTG+CAGCACATTATGCACGTCG ((((((((.(.((((((((+)))))))).).)))))))) | 47.7 |
| CGACGTGCCTCATGTGCTG+CAGCACATTGAGCACGTCG ((((((((...((((((((+))))))))...)))))))) | 51.4 |
| CGACGTGCCTCATGTGCTG+CAGCACATTGCGCACGTCG ((((((((...((((((((+))))))))...)))))))) | 47.5 |
| CGACGTGCCTCATGTGCTG+CAGCACATTTGGCACGTCG (((((((((..((((((((+))))))))..))))))))) | 53.6 |
| CGACGTGCCTCATGTGCTG+CAGCACATTTTGCACGTCG ((((((((...((((((((+))))))))...)))))))) | 46.6 |
| CGACGTGCCTGATGTGCTG+CAGCACATAACGCACGTCG ((((((((.(.((((((((+)))))))).).)))))))) | 48.8 |
| CGACGTGCCTGATGTGCTG+CAGCACATAAGGCACGTCG ((((((((((.((((((((+)))))))).)))))))))) | 59 |
| CGACGTGCCTGATGTGCTG+CAGCACATAATGCACGTCG ((((((((.(.((((((((+)))))))).).)))))))) | 49.9 |
| CGACGTGCCTGATGTGCTG+CAGCACATACTGCACGTCG ((((((((...((((((((+))))))))...)))))))) | 48.4 |
| CGACGTGCCTGATGTGCTG+CAGCACATAGAGCACGTCG ((((((((...((((((((+))))))))...)))))))) | 51.2 |
| CGACGTGCCTGATGTGCTG+CAGCACATATAGCACGTCG ((((((((...((((((((+))))))))...)))))))) | 49.8 |
| CGACGTGCCTGATGTGCTG+CAGCACATCAAGCACGTCG ((((((((.((((((((((+)))))))))).)))))))) | 56.6 |
| CGACGTGCCTGATGTGCTG+CAGCACATCACGCACGTCG ((((((((.((((((((((+)))))))))).)))))))) | 55.5 |
| CGACGTGCCTGATGTGCTG+CAGCACATCATGCACGTCG ((((((((.((((((((((+)))))))))).)))))))) | 56.9 |
| CGACGTGCCTGATGTGCTG+CAGCACATCGAGCACGTCG ((((((((..(((((((((+)))))))))..)))))))) | 55.3 |
| CGACGTGCCTGATGTGCTG+CAGCACATCGGGCACGTCG (((((((((.(((((((((+))))))))).))))))))) | 61.7 |

| Substance | Tm [°C] |
| --- | --- |
| CGACGTGCCTGATGTGCTG+CAGCACATCTTGCACGTCG ((((((((..(((((((((+)))))))))..)))))))) | 53.7 |
| CGACGTGCCTGATGTGCTG+CAGCACATGAAGCACGTCG ((((((((.(.((((((((+)))))))).).)))))))) | 49.8 |
| CGACGTGCCTGATGTGCTG+CAGCACATGGGGCACGTCG (((((((((..((((((((+))))))))..))))))))) | 56.4 |
| CGACGTGCCTGATGTGCTG+CAGCACATGGTGCACGTCG ((((((((...((((((((+))))))))...)))))))) | 47.4 |
| CGACGTGCCTGATGTGCTG+CAGCACATGTAGCACGTCG ((((((((...((((((((+))))))))...)))))))) | 49.3 |
| CGACGTGCCTGATGTGCTG+CAGCACATGTCGCACGTCG ((((((((...((((((((+))))))))...)))))))) | 48 |
| CGACGTGCCTGATGTGCTG+CAGCACATGTGGCACGTCG (((((((((..((((((((+))))))))..))))))))) | 54.9 |
| CGACGTGCCTGATGTGCTG+CAGCACATTCCGCACGTCG ((((((((...((((((((+))))))))...)))))))) | 48.5 |
| CGACGTGCCTGATGTGCTG+CAGCACATTGAGCACGTCG ((((((((...((((((((+))))))))...)))))))) | 51 |
| CGACGTGCCTGATGTGCTG+CAGCACATTGCGCACGTCG ((((((((...((((((((+))))))))...)))))))) | 49.3 |
| CGACGTGCCTGATGTGCTG+CAGCACATTTGGCACGTCG (((((((((..((((((((+))))))))..))))))))) | 55.6 |
| CGACGTGCCTTATGTGCTG+CAGCACATAAAGCACGTCG ((((((((.((((((((((+)))))))))).)))))))) | 53.4 |
| CGACGTGCCTTATGTGCTG+CAGCACATAAGGCACGTCG (((((((((((((((((((+))))))))))))))))))) | 62.9 |
| CGACGTGCCTTATGTGCTG+CAGCACATACGGCACGTCG (((((((((.(((((((((+))))))))).))))))))) | 56.1 |
| CGACGTGCCTTATGTGCTG+CAGCACATAGAGCACGTCG ((((((((..(((((((((+)))))))))..)))))))) | 51.8 |
| CGACGTGCCTTATGTGCTG+CAGCACATAGGGCACGTCG (((((((((.(((((((((+))))))))).))))))))) | 57.7 |
| CGACGTGCCTTATGTGCTG+CAGCACATATGGCACGTCG (((((((((.(((((((((+))))))))).))))))))) | 57.9 |
| CGACGTGCCTTATGTGCTG+CAGCACATCAAGCACGTCG ((((((((.(.((((((((+)))))))).).)))))))) | 48.8 |
| CGACGTGCCTTATGTGCTG+CAGCACATCACGCACGTCG ((((((((.(.((((((((+)))))))).).)))))))) | 46.7 |
| CGACGTGCCTTATGTGCTG+CAGCACATCGCGCACGTCG ((((((((...((((((((+))))))))...)))))))) | 47.2 |
| CGACGTGCCTTATGTGCTG+CAGCACATCGGGCACGTCG (((((((((..((((((((+))))))))..))))))))) | 53.1 |
| CGACGTGCCTTATGTGCTG+CAGCACATCTGGCACGTCG (((((((((..((((((((+))))))))..))))))))) | 53.7 |
| CGACGTGCCTTATGTGCTG+CAGCACATGAAGCACGTCG ((((((((.(.((((((((+)))))))).).)))))))) | 50.5 |
| CGACGTGCCTTATGTGCTG+CAGCACATGAGGCACGTCG ((((((((((.((((((((+)))))))).)))))))))) | 59.4 |

| Substance | Tm [°C] |
| --- | --- |
| CGACGTGCCTTATGTGCTG+CAGCACATGCAGCACGTCG ((((((((...((((((((+))))))))...)))))))) | 49 |
| CGACGTGCCTTATGTGCTG+CAGCACATGCTGCACGTCG ((((((((...((((((((+))))))))...)))))))) | 45.1 |
| CGACGTGCCTTATGTGCTG+CAGCACATGGGGCACGTCG (((((((((..((((((((+))))))))..))))))))) | 56.1 |
| CGACGTGCCTTATGTGCTG+CAGCACATGTAGCACGTCG ((((((((...((((((((+))))))))...)))))))) | 49.1 |
| CGACGTGCCTTATGTGCTG+CAGCACATTACGCACGTCG ((((((((.(.((((((((+)))))))).).)))))))) | 47.7 |
| CGACGTGCCTTATGTGCTG+CAGCACATTCAGCACGTCG ((((((((...((((((((+))))))))...)))))))) | 49 |
| CGACGTGCCTTATGTGCTG+CAGCACATTCGGCACGTCG (((((((((..((((((((+))))))))..))))))))) | 53 |
| CGACGTGCCTTATGTGCTG+CAGCACATTGGGCACGTCG (((((((((..((((((((+))))))))..))))))))) | 55 |
| CGACGTGCCTTATGTGCTG+CAGCACATTTCGCACGTCG ((((((((...((((((((+))))))))...)))))))) | 47.1 |
| CGACGTGCCTTATGTGCTG+CAGCACATTTGGCACGTCG (((((((((..((((((((+))))))))..))))))))) | 54.3 |
| CGACGTGCCTTATGTGCTG+CAGCACATTTTGCACGTCG ((((((((...((((((((+))))))))...)))))))) | 47.9 |
| CGACGTGCGAAATGTGCTG+CAGCACATACAGCACGTCG ((((((((...((((((((+))))))))...)))))))) | 53.3 |
| CGACGTGCGAAATGTGCTG+CAGCACATACGGCACGTCG ((((((((...((((((((+))))))))...)))))))) | 49 |
| CGACGTGCGAAATGTGCTG+CAGCACATATCGCACGTCG ((((((((((.((((((((+)))))))).)))))))))) | 57.4 |
| CGACGTGCGAAATGTGCTG+CAGCACATATTGCACGTCG ((((((((.(.((((((((+)))))))).).)))))))) | 51.9 |
| CGACGTGCGAAATGTGCTG+CAGCACATCCCGCACGTCG (((((((((..((((((((+))))))))..))))))))) | 52.9 |
| CGACGTGCGAAATGTGCTG+CAGCACATCCTGCACGTCG ((((((((...((((((((+))))))))...)))))))) | 49.5 |
| CGACGTGCGAAATGTGCTG+CAGCACATCGCGCACGTCG (((((((((..((((((((+))))))))..))))))))) | 53.8 |
| CGACGTGCGAAATGTGCTG+CAGCACATGACGCACGTCG (((((((((..((((((((+))))))))..))))))))) | 55 |
| CGACGTGCGAAATGTGCTG+CAGCACATGAGGCACGTCG ((((((((...((((((((+))))))))...)))))))) | 54.5 |
| CGACGTGCGAAATGTGCTG+CAGCACATGCCGCACGTCG (((((((((..((((((((+))))))))..))))))))) | 56 |
| CGACGTGCGAAATGTGCTG+CAGCACATGCGGCACGTCG ((((((((...((((((((+))))))))...)))))))) | 51.7 |
| CGACGTGCGAAATGTGCTG+CAGCACATGGTGCACGTCG ((((((((...((((((((+))))))))...)))))))) | 50.6 |
| CGACGTGCGAAATGTGCTG+CAGCACATGTCGCACGTCG ((((((((((.((((((((+)))))))).)))))))))) | 58.9 |
